Numbering of substitutions follows the chain as printed.

As a reminder, the Kd is the free concentration of one partner at which half of the binding sites on the other are occupied at equilibrium, for simple one-to-one binding.

Series [1] concerns the target T1, UV-DDB (DDB1-DDB2);XPC-RAD23B (Homo sapiens;Homo sapiens, UniProt Q16531;Q92466;Q01831;P54727 1-1140;1-427;1-940;1-409, |). The experiment in a line: single-molecule DNA curtain. The following applies: 0.2 nM UV-DDB, 0.4 nM XPC-RAD23B, 3-fold more at CPD sites than random sites, three CPDs around 33.5 kbp (33513-33630), EMSA: 50 mM Tris-HCl pH 7.5, 100 mM NaCl, 0.1 mg/ml BSA, 1 mM DTT, 23°C, 45 min, DNA curtains: 10 mM Tris-HCl pH 8.0, 1 mM EDTA, 0.16% BSA, 0-100 mM …. In general terms: Mobility shift assays separate free from complexed probe on a gel.

Series [2] concerns the target UV-DDB (heterodimer of DDB1 and DDB2) (human, UniProt Q16531 1-1140; Q92466 1-427). The experiment in a line: cell-based or functional assay.
In series [3] the target is T1, UV-DDB (DDB1-DDB2);XPC-RAD23B. The experiment in a line: EMSA; 15 nM XPC-RAD23B, UV-DDB titrated, 10 nM DNA; co-bound band confirmed by native western; EMSA: 50 mM Tris-HCl pH 7.5, 100 mM NaCl, 0.1 mg/ml BSA, 1 mM DTT, 23°C, 45 min; DNA curtains: 10 mM Tris-HCl pH 8.0, 1 mM EDTA, 0.16% BSA, 1 mM DTT, 0-100 mM NaCl, 23°C. The following applies: protein: recombinant;recombinant; tags: 3xHA at N-terminus of DDB1 (1xFLAG removed by PreScission);3xFLAG at N-terminus of XPC; copies: 1;1;1;1; label: 5'-FAM on strand 2; blunt; T21 of strand 1 faces T of strand 2 (T-T mismatch at the CPD).

The target in series [4] is XPC-RAD23B (Homo sapiens, UniProt Q01831;P54727 1-940;1-409). Put plainly: EMSA; 4 nM DNA, no competitor; EMSA: 50 mM Tris-HCl pH 7.5, 100 mM NaCl, 0.1 mg/ml BSA, 1 mM DTT, 23°C, 45 min; DNA curtains: 10 mM Tris-HCl pH 8.0, 1 mM EDTA, 0.16% BSA, 1 mM DTT, 0-100 mM NaCl, 23°C. Particulars: protein: recombinant, tags: 3xFLAG at N-terminus of XPC, copies: 1;1, label: 5'-FAM on strand 2, blunt.

Series [5] concerns the target UV-DDB (DDB1-DDB2) (Homo sapiens, UniProt Q16531;Q92466 1-1140;1-427). The series is described as above. The following applies: protein: recombinant, tags: 3xHA at N-terminus of DDB1 (1xFLAG removed by PreScission), copies: 1;1, label: 5'-FAM on strand 2, blunt.
Series [6] deals with T1, UV-DDB (DDB1-DDB2);XPC-RAD23B. Put plainly: EMSA; 2 nM XPC-RAD23B, UV-DDB titrated, 10 nM DNA; EMSA: 50 mM Tris-HCl pH 7.5, 100 mM NaCl, 0.1 mg/ml BSA, 1 mM DTT, 23°C, 45 min; DNA curtains: 10 mM Tris-HCl pH 8.0, 1 mM EDTA, 0.16% BSA, 1 mM DTT, 0-100 mM NaCl, 23°C. The following applies: protein: recombinant;recombinant; tags: 3xHA at N-terminus of DDB1 (1xFLAG removed by PreScission);3xFLAG at N-terminus of XPC; copies: 1;1;1;1; label: 5'-FAM on strand 2; blunt; T21 of strand 1 faces T of strand 2 (T-T mismatch at the CPD).

The target is the same in series [7]. The experiment in a line: EMSA; 2 nM XPC-RAD23B increases UV-DDB binding; EMSA: 50 mM Tris-HCl pH 7.5, 100 mM NaCl, 0.1 mg/ml BSA, 1 mM DTT, 23°C, 45 min; DNA curtains: 10 mM Tris-HCl pH 8.0, 1 mM EDTA, 0.16% BSA, 1 mM DTT, 0-100 mM NaCl, 23°C. Particulars: protein: recombinant;recombinant; tags: 3xHA at N-terminus of DDB1 (1xFLAG removed by PreScission);3xFLAG at N-terminus of XPC; copies: 1;1;1;1; label: 5'-FAM on strand 2; blunt.

The mark [8] stands for this setting: T21 of strand 1 faces T of strand 2 (T-T mismatch at the CPD).

T1 sequence (Q16531 whole entry, chain 1 of 2): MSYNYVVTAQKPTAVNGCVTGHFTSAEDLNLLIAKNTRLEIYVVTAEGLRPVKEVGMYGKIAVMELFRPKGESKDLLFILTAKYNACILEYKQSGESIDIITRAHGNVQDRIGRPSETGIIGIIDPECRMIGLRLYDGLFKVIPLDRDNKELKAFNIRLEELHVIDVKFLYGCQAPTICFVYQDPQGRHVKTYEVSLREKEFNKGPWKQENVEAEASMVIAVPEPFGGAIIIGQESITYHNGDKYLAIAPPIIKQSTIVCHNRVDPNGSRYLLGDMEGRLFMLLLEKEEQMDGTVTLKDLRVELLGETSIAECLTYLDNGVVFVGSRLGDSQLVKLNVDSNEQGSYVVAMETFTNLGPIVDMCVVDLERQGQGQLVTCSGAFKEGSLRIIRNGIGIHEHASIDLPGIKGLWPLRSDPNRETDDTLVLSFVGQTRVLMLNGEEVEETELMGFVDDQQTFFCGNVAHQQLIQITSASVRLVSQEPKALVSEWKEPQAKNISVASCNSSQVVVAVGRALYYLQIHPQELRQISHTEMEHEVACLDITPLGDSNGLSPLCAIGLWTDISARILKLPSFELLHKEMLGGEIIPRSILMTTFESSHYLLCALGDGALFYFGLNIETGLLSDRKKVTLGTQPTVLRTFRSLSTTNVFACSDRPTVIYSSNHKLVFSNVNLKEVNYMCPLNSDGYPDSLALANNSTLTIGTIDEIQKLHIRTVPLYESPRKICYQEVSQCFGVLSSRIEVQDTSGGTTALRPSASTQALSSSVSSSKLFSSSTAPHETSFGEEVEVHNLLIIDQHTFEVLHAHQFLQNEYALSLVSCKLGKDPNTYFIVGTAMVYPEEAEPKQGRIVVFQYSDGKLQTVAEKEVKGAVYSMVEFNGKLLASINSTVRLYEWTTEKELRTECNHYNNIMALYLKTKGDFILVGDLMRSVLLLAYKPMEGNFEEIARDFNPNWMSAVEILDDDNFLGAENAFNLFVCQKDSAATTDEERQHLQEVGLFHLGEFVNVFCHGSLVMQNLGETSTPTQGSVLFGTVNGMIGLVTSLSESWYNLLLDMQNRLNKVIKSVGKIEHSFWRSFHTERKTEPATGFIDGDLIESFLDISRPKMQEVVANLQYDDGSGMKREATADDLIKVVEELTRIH
T1 sequence (Q92466 whole entry, chain 2 of 2): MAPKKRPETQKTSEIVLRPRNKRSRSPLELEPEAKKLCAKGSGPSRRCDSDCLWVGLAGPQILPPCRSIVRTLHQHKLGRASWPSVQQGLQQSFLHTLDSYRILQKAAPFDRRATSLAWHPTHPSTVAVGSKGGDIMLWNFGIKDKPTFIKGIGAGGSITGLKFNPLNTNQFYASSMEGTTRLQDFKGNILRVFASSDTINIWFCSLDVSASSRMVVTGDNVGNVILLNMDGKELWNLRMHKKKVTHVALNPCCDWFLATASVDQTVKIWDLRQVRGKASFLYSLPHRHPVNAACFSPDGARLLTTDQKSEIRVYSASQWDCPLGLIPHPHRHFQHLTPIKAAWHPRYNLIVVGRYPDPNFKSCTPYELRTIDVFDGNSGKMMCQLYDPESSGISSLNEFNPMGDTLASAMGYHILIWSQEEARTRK
UV-DDB (DDB1-DDB2), sequence (Q16531 whole entry, chain 1 of 2): as the sequence (Q16531 whole entry, chain 1 of 2) above
UV-DDB (DDB1-DDB2), sequence (Q92466 whole entry, chain 2 of 2): as the sequence (Q92466 whole entry, chain 2 of 2) above
UV-DDB (heterodimer of DDB1 and DDB2), sequence (Q16531 whole entry, chain 1 of 2): as the sequence (Q16531 whole entry, chain 1 of 2) above
UV-DDB (heterodimer of DDB1 and DDB2), sequence (Q92466 whole entry, chain 2 of 2): as the sequence (Q92466 whole entry, chain 2 of 2) above

Take 3x CPD λ-DNA (λ-I3): in series [1], the binding signal (fold bound UV-DDB vs no XPC-RAD23B) is 5.5.

B1: XPC-RAD23B (complex, human)
chain 1: MARKRAAGGEPRGRELRSQKSKAKSKARREEEEEDAFEDEKPPKKSLLSKVSQGKRKRGCSHPGGSADGPAKKKVAKVTVKSENLKVIKDEALSDGDDLRDFPSDLKKAHHLKRGATMNEDSNEEEEESENDWEEVEELSEPVLGDVRESTAFSRSLLPVKPVEIEIETPEQAKTRERSEKIKLEFETYLRRAMKRFNKGVHEDTHKVHLLCLLANGFYRNNICSQPDLHAIGLSIIPARFTRVLPRDVDTYYLSNLVKWFIGTFTVNAELSASEQDNLQTTLERRFAIYSARDDEELVHIFLLILRALQLLTRLVLSLQPIPLKSATAKGKKPSKERLTADPGGSSETSSQVLENHTKPKTSKGTKQEETFAKGTCRPSAKGKRNKGGRKKRSKPSSSEEDEGPGDKQEKATQRRPHGRERRVASRVSYKEESGSDEAGSGSDFELSSGEASDPSDEDSEPGPPKQRKAPAPQRTKAGSKSASRTHRGSHRKDPSLPAASSSSSSSKRGKKMCSDGEKAEKRSIAGIDQWLEVFCEQEEKWVCVDCVHGVVGQPLTCYKYATKPMTYVVGIDSDGWVRDVTQRYDPVWMTVTRKCRVDAEWWAETLRPYQSPFMDREKKEDLEFQAKHMDQPLPTAIGLYKNHPLYALKRHLLKYEAIYPETAAILGYCRGEAVYSRDCVHTLHSRDTWLKKARVVRLGEVPYKMVKGFSNRARKARLAEPQLREENDLGLFGYWQTEEYQPPVAVDGKVPRNEFGNVYLFLPSMMPIGCVQLNLPNLHRVARKLDIDCVQAITGFDFHGGYSHPVTDGYIVCEEFKDVLLTAWENEQAVIERKEKEKKEKRALGNWKLLAKGLLIRERLKRRYGPKSEAAAPHTDAGGGLSSDEEEGTSSQAEAARILAASWPQNREDEEKQKLKGGPKKTKREKKAAASHLFPFEQL
chain 2: MQVTLKTLQQQTFKIDIDPEETVKALKEKIESEKGKDAFPVAGQKLIYAGKILNDDTALKEYKIDEKNFVVVMVTKPKAVSTPAPATTQQSAPASTTAVTSSTTTTVAQAPTPVPALAPTSTPASITPASATASSEPAPASAAKQEKPAEKPAETPVATSPTATDSTSGDSSRSNLFEDATSALVTGQSYENMVTEIMSMGYEREQVIAALRASFNNPDRAVEYLLMGIPGDRESQAVVDPPQAASTGAPQSSAVAAAAATTTATTTTTSSGGHPLEFLRNQPQFQQMRQIIQQNPSLLPALLQQIGRENPQLLQQISQHQEHFIQMLNEPVQEAGGQGGGGGGGSGGIAEAGSGHMNYIQVTPQEKEAIERLKALGFPEGLVIQAYFACEKNENLAANFLLQQNFDED
With B1, the “EMSA: binding of UV-DDB (0-25 nM) to DNA with 15 nM XPC-RAD23B against none” value in series [2] is ~4 fold.

B2: CPD-containing 39 bp DNA (λ-I3_CPD / λ-I3_comp_FAM) (dsDNA)
DNA 1: TGCATGCGGCCGCTCTTCCCTTGGTGCGATCGCTCTTCG
DNA 2: CGAAGAGCGATCGCACCATGGGAAGAGCGGCCGCATGCA
modifications: cyclobutane pyrimidine dimer T21^T22 in strand 1; 5'-phosphate on strand 1
For the molecule B2, the binding signal in series [3] is ~4 fold UV-DDB binding vs no XPC-RAD23B; in series [6], 2.5 fold UV-DDB affinity vs no XPC-RAD23B. The Kd in series [4] (setting [8]) is ~7 nM; in series [5] (setting [8]) it was ~5 nM.

B3: undamaged 39 bp DNA (λ-I3_Dup / λ-I3_comp_FAM) (dsDNA)
DNA 1: B2 DNA 1 with T21A
DNA 2: B2 DNA 2
modifications: 5'-phosphate on strand 1
As for B3, the values for the Kd in series [4] and in series [5] were ~9 nM and ~26 nM, respectively. Besides, the binding result in series [7] is “binds”.
